B1: 176 (protein, listed as Streptomonospora sp.)
chain: MTTANRAAHAADAAREPQVEAALARLDLDGRIRLLSGATMWAIAPNPDIGLERLVMSDGPVGVRGEHWTPDDPALQLPSPTALAATWDTELIRTVGRTLAQEARRKGVHVLLAPTVNIHRSPLGGRHFECYSEDPLLTGRIGTAYVDGVQDGGVGTTVKHFVANDSETDRFTVDVRVDERTLREIYLAPFEAIVDGARPWGVMAAYNGVNGTTMTEHARLNAVLRDEWGFDGFIVSDWTAARDTVGCALAGMDVAMPGPSTVYGENLRAAVREGRVPEGAVEAMARRVLRLAARVGALEGAEPAVAPAALPPAIDGRAVAREAAARSFTLLRNEGRALPIDPARVGSVALIGLAADEARTSGGGSATVFTEHTVSPREGLRAALPESVRLDYAVGADPRASLPPLAGPLTAAFRDADGTVLATERLADGTARWIGELPDGVTAEGLSTIEVSGTLTPAYTGTHVFGAKGVGHFRLAVGGRVGFDGVNEVDGDDPGAGFLNPPESTAEFALTAGEAVEVSVVATVPGVSADFAFIGFSLNHSEPRAGDDELIEEAVRTAAGADVAIVIAATTEEVESEGFDRDSLELPGRQDELVSRVAAANPRTVAVVNTGSPVVMPWRGDVAAVLLTWFGGQELGAALADVLLGAEEPGGRLPTTWPAEQADVPVIGVRPDGGVLEYSEGVFVGYRAWQRLGAEPAYWFGHGLGYTTWDYTGADAAVRLDGGVSVTARLANTGARRGREVVQVYVSPQEEGGAPERPRRWLAGFAPVVAEPGASAEAVVEVPARAFQVWDSAAHDWRTVPGGYDVLVGRSVADTPVSARVEIAG
B2: 229 (protein, listed as Nectria haematococca)
chain: MASVDIPAILATLSLEEKVSLLAGKNLWETVPVPSKGVPNVKVSDGPNGARGASFAGGTTAACFPAACLMASTFDVKLAKRIGSALAEETQSKGARCLLAPTMCLHRHPLGGRNFESFSEDPLLTGKMAARVVEGLQDKGVSATIKHFAVNEQETDRLTVDETVNERALRELYLRPFEIAVKEANPWAVMTAYNKINGHHADCHPFTLKKVLRGDWGWNGLVMSDWGGTNSTPDSLEAGLDLEMPGPTRWRKPEDVIAAIKEGKTSEKTIDERATNVLRFLERLGCFKDPTIPDEKAINKPEHQALIREAGSKGIVLLKNQDKILPLSKEKVKGKKIALLGHAKIGLAHGGGSASVSAHYKVTPWDALHEALGDSVEFSYAKGAHTFRTLPAIAENVVGLDGKPGFTFKVYEPGSSEPIETRHGHADSEVSALGSFGFLNKDVSLEGAFTPQETAQYYFTCSGLGPSKLIIDDKVVYEQTENCSDAMGFLFGGVAAPEFKVALEAGRQYKLVLRTSPPSANDREDLGILEGLCGLRVGSMSESEHDRDLVSEAVEVAKNADYAVIFTGHEPFWETEGQDQVSFNLPKDGSQDRLISAVAAANPNTVVVNSTGVAIAMPWLNEIQGFLQTWYPGQECGNSIADVLTGAQTPEGHLTCTFPKKIEDCPAYGNFPGEYDNGKLKVTYKEGVFIGYRHFDRLPADKVNFPFGFGLSYTTFDFSSLEVKESGEGYTASLKVSNTGDVVGAIAVQVYVGAAQTAEENPVKQLVAFEKVTVKPGETASVEVPVRTRDFGFFDESKQKWVVKGGDYKFLIGKSARDIVLESTVAVKEQSFDL
B3: 365 (protein)
chain: MEDDGANSKTELSDQRKVALLSGADDWHTEAVPELGLEAVMMADGPHGLRKVMSASLADLQASEPATCFPTGSALAATWDRVLAGDVGRAIGREAVAEGVGVVLGPAVNLKRHPAAGRNFEYFSEDPFLAGELAVAWIDGVQGEGVGASLKHFAVNNQEANRMVVDAVVDPATLRELYLGAFEAAVRRSRPWTVMSAYNLLNGVYCSEDPWLLSELLRDQWGFDGLVVTDWGANDDRVAGIRAGQDLEMPGGHGTHDAAVLAALADGSLHRADLDGCVRRVLALLERADGARSGRPGSAMASPRPGADPDALHREHHQLARRAAAAGTVLLTNDGTLPLAPSGHVALIGEFAAHPRFQGGGSSQVKATRSDNLHAELRTHVDAAGGRVQYAPGYVLRARDDRPGEPARRVDEAVSIARGAEVAVVVVGLPDAVESEGFDRDHLHLPESHNILVRAVCAANPNTVVIVVAGSPVTMDWVDQPAAIIHGYLGGQAAGGALADVLVGAAEPGGRLAETFPVRSAGVASDRWFPGEPHQVTYREGPYIGYRWFDASGATPLFPFGHGLSYAEITLGVPTLSAQHVDAGVLLGGTDVVAPAEVPPPGAGPVAFTVTVPLTNAGDRAGSEVVQVYLESPDTGRPAAHRHLVGFAKVNLEPNSTREATVDVHARALCHWHPADRGWAVSAGTWGVAVGCSSGNLPHGLMVEVASSWSAPEPDPALDPYRNPRPDDWDPGVAAFEALLGRSVPEPTPVRPFTRNTTLGELGETRLGRPLLALVRAIVAHTTGGAHDEGGLGAMIDRSLGELPLRNLAVMSQGRVPMSAINRLIALANRMPGHPAGHPPGRPPGRSVGFTRPGRRR
modifications: Candidatus microthrix
B4: 63 (protein, listed as Gynuella sunshinyii)
chain: MFDPVTILKQLNREEKVQLLCGLDAWHLHGVERLGIPSITLTDGPHGVRLAQSHDVFDSVDATVFPVEAAMAATWNVGLIKELAGAIAKECQQLGVSVLLGPGVNGKRSPLGGRNFEYFSEDPYLTGAMASNFVEGVQSQGVGACLKHFAGNEQETRRFLINSVIDERTLQEMYIAPFAKAIRESRPWTVMGAYNSVNGQFACQNSHLLQDILRDQLGFDGLVMSDWGAVGDKVACHQHGLDLEMPGPADRDQQLLDALDNGDMSEVVLDSRVLKVLELIHKSVTHKRDVQVDFERHHELAIEVACDSAVLLKNSGNLPLDKSRSIGLIGQFAKHPRFQGGGSSHMNPRHLSNAFEAFCSRAEVSWAMGYEELEMTDEMLREAVALAKRVDQVVLLTGTTDALESEGFDRSNMRLPEAHVELIKAVYQTNSNVVVVMYAGSALETRQIEDYAPSLMHAWLPGEGGGEALARLLFGEVSPSGKLSETFPVRLEHNPTYESFPGNKADTIYNEGIFTGYRYYDTKKLPVQYPFGYGLSYTSFAYSDLSYDASCREVAVNVTNIGDMAGAEVVQVYIHDEHSTLRRPDQELKGFAKVMLQPGETQRVSIALDEQAFAYFVTHLQRFAEESGRFEIRVGSSSRDIHESLWIELESDIECRQIPTLNDTVEDWLRDDRTRPILEDAFAQVGFTKDHSFYALTLGFPMTLLKKFMPMMGLTEQQCESLKDKLGLE

test: Experiment 4-1: screening of glucosidases for deglycosylation with purified QS-18 (0.04 mg/ml) at pH 7.5 and room temperature; format: biochemical, Quillaja saponaria; conditions: pH 7.5, room temperature, 20 h, clarified E. coli lysate, QS-18 2150 to QS-21 1988 by LCMS/MS
Method in brief: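 Candidate glucosidases expressed in E. coli BL21(DE3) (pET24b+, autoinduction, 20 °C for 20 h); clarified lysates in 100 mM potassium phosphate pH 7.5 incubated with QS-18 (0.04 mg/ml final) 20 h at room temperature. Quenched with MeCN, analysed by LC-MS/MS for % conversion; hits >3 S.D. above negative control.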

Molecule | Expt 4-1 % conv [%]
B1 | 1.2
B2 | 91.1
B3 | 1.3
B4 | 95.6

test: Experiment 4-2: screening of glucosidases for deglycosylation with purified QS-18 (1 mg/ml) at pH 6 and 30 deg C; format: biochemical, Quillaja saponaria; conditions: pH 6, 30 degC, 18 hrs, clarified lysate, LCMS/MS
Method in brief: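 Clarified lysates of glucosidase-expressing cells in 100 mM potassium phosphate pH 6 were incubated 18 h at 30 °C with QS-18 at 1 mg/ml final. Reactions quenched with MeCN; deglycosylation activity determined by LC-MS/MS.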

Molecule | Expt 4-2 % conv [%]
B1 | 0.4
B2 | 14.2
B3 | 0.4
B4 | 54.2

test: Experiment 4-4: screening of glucosidases for deglycosylation of QS-18 in crude bark extract (1 in 20 dilution) to QS-21; format: biochemical, Quillaja saponaria; conditions: CBE 1 in 20 dilution, pH 6, 25 degC, 18 hours; % conversion of Middle Peak by UV HPLC
Method in brief: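 Clarified glucosidase lysates were incubated with pH 6 crude bark extract (1 in 20) in potassium phosphate buffer pH 6 for 18 h at 25 °C with shaking, then quenched with MeCN. UV HPLC with MS/MS-supported peak identity; activity is % conversion of the extract's Middle Peak (QS-18 family) toward the QS-21 peak.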

Molecule | Expt 4-4 % conv [%]
B1 | <3
B2 | <3
B3 | <3
B4 | <3

Reference: patent US20240026407A1, “MODIFICATION OF SAPONINS” (GLAXOSMITHKLINE BIOLOGICALS SA, priority 2020, published 2024)
